Test results published in publication PMC5861428.

Key:
[1] = test system: Fab BL3-6 (synthetic (humanized Fab4D5 framework phage library)), PDB:6B14_1+PDB:6B3K_2; experiment: filter binding
[2] = test system: Fab BL3-6 S97N (synthetic), PDB:6B14_1+PDB:6B14_2; experiment: filter binding
[3] = test system: Fab clone 1 (synthetic), PDB:6B14_1+PDB:6B3K_2; experiment: filter binding
[4] = test system: Fab clone 10 (Fab 10) (synthetic), PDB:6B14_1+PDB:6B3K_2; experiment: filter binding
[5] = test system: Fab clone 11 (synthetic), PDB:6B14_1+PDB:6B3K_2; experiment: filter binding
[6] = test system: Fab clone 12 (synthetic), PDB:6B14_1+PDB:6B3K_2; experiment: filter binding
[7] = test system: Fab clone 13 (synthetic), PDB:6B14_1+PDB:6B3K_2; experiment: filter binding
[8] = test system: Fab clone 14 (synthetic), PDB:6B14_1+PDB:6B3K_2; experiment: filter binding
[9] = test system: Fab clone 15 (synthetic), PDB:6B14_1+PDB:6B3K_2; experiment: filter binding
[10] = test system: Fab clone 17 (synthetic), PDB:6B14_1+PDB:6B3K_2; experiment: filter binding
[11] = test system: Fab clone 18 (synthetic), PDB:6B14_1+PDB:6B3K_2; experiment: filter binding
[12] = test system: Fab clone 2 (synthetic), PDB:6B14_1+PDB:6B3K_2; experiment: filter binding
[13] = test system: Fab clone 3 (Fab 3) (synthetic), PDB:6B14_1+PDB:6B3K_2; experiment: filter binding
[14] = test system: Fab clone 4 (synthetic), PDB:6B14_1+PDB:6B3K_2; experiment: filter binding
[15] = test system: Fab clone 5 (synthetic), PDB:6B14_1+PDB:6B3K_2; experiment: filter binding
[16] = test system: Fab clone 6 (synthetic), PDB:6B14_1+PDB:6B3K_2; experiment: filter binding
[17] = test system: Fab clone 9 (synthetic), PDB:6B14_1+PDB:6B3K_2; experiment: filter binding
[18] = test system: Fab BL3-6 (synthetic (humanized Fab4D5 framework phage library)), PDB:6B14_1+PDB:6B3K_2; experiment: hydroxyl-radical footprinting

Sequence | Kd [1] | Kd [2] | Kd [3] | Kd [4] | Kd [5] | Kd [6] | Kd [7] | Kd [8] | Kd [9] | Kd [10] | Kd [11] | Kd [12] | Kd [13] | Kd [14] | Kd [15] | Kd [16] | Kd [17] | Kd [18]
GUCCAGUAGGAACACUAUACUACUGGAUAAUCAAAGACAAAUCUGCCCGAAGGGCUUGAGAACAUCGAAACACGAUGCAGAGGUGGCAGCCUCCGGUGGGUUAAAACCCAACGUUCUCAACAAUAGUGA [WT-BLP] | 120 nM | 5 nM | 26 nM | 30 nM | 37 nM | 37 nM | 36 nM | 45 nM | 34 nM | 42 nM | 51 nM | 50 nM | 28 nM | 29 nM | 20 nM | 54 nM | 66 nM | 
GGCGACCAUGGAAACACCAUGGUCGC [WT-RNA HP (WT BL3-6 HP)] |  | 13 nM | 29 nM | 28 nM | 13 nM | 17 nM | 25 nM | 58 nM | 17 nM | 21 nM | 22 nM |  | 25 nM | 28 nM | 28 nM | 52 nM | 67 nM | 
UGCGACCAUGGUGAGACCCGCCAUGGUCGC [N9RNA1 HP (AM HP)] |  | 9 nM | 11 nM | 9 nM | 9 nM | 7 nM | 11 nM |  | 10 nM | 8 nM | 9 nM | 10 nM | 9 nM | 11 nM | 8 nM | 7 nM | 13 nM | 30 nM
